For experiment [1], the target named is T1, U-STAT1 (purified full-length unphosphorylated STAT1) (UniProt P42224 1-750).
T1 construct: also called Full-length STAT1
T1 sequence (looked up): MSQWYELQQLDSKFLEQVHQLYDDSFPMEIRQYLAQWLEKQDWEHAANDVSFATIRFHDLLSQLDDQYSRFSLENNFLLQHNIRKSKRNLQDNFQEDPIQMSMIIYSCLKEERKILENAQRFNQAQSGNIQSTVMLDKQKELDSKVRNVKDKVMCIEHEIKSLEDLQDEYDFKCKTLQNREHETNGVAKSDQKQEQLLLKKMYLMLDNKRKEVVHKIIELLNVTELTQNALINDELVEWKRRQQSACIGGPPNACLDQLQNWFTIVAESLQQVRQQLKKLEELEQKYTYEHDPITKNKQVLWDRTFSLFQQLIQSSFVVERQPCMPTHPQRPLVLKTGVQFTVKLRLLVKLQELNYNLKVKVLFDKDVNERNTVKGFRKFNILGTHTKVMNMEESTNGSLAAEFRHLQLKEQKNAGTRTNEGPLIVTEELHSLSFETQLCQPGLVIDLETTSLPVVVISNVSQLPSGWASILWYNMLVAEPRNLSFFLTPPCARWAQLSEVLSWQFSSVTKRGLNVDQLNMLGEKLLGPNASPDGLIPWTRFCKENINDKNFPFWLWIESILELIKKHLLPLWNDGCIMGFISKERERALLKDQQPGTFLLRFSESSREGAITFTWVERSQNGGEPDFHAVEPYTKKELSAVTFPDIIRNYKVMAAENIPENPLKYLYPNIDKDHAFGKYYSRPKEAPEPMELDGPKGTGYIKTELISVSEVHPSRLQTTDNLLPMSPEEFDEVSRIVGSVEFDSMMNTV
Description: ITC. The following applies: both partners purified.

Experiment [2] has as its target T1, U-STAT1 (purified full-length …). Description: fluorescence polarisation. The following applies: both partners purified. (Fluorescence polarisation rises when a labelled molecule tumbles more slowly, as on binding a larger partner.)

Some results are limits rather than exact numbers.

For orientation: Kd means the constant that tells how readily two partners part at equilibrium. Read a low Kd as a tighter complex. YDKPH (also called pYDKPH; pIFNGR 5-mer) [pIFNGR1 5-mer peptide] came in with a Kd in experiment [1] of 7.6 µM.

A word on the IC50: it is the concentration that inhibits the measured activity by half. Lower therefore signals greater potency. Molecule MWSVFIHGHDGSNKGSKTYTS (domain or fragment) [GB1-018^T2] returned an IC50 in experiment [2] of 0.93 µM. Further, the Kd in experiment [1] turned out to be 0.235 µM.

Take MWSVFIHGHDGSNKGSK (domain or fragment) [GB1-018^T3]: the IC50 in experiment [2] was 17.8 µM. The same molecule registered a Kd in experiment [1] above 10 µM.

B1: GB1-018 (natural protein)
chain: MSSKGGSSGGMWSVFIHGHDGSNKGSKTYTSGGGGMWGGGSSSGVKSGVNGGVKSGTGKI
In general, stoichiometry N refers to a count of units in the complex or per binding partner. On to B1, for which half-maximal inhibition in experiment [2] (IC50) was put at 1.26 µM. Further, in experiment [1], the Kd worked out at 0.291 µM and the “stoichiometry N” value is 1.02.
